The source of these data is patent publication US20130157935A1 (ZEALAND PHARMA A S, published 2013).

In experiment [1] the target is human glucagon-like peptide 1 receptor (GLP-1 R) (human, UniProt P43220 24-463). As to the kind of experiment: cell-based or functional assay.
Experiment [2] addresses human glucagon receptor (Glucagon-R) (human, UniProt P47871 26-477). As to the kind of experiment: cell-based or functional assay.

Starred links: 1 amine or outer side, 2 acyl side, 3 side chain; linkers in the order of their positions; H or OH if unused. Groups on a side chain read outwards from the residue. *: point of attachment. γGlu = O=C(O)[C@H](CCC(=O)[*:2])N[*:1]; Palmitoyl = CCCCCCCCCCCCCCCC(=O)*

Chain of human glucagon receptor (Glucagon-R) (P47871 26-477): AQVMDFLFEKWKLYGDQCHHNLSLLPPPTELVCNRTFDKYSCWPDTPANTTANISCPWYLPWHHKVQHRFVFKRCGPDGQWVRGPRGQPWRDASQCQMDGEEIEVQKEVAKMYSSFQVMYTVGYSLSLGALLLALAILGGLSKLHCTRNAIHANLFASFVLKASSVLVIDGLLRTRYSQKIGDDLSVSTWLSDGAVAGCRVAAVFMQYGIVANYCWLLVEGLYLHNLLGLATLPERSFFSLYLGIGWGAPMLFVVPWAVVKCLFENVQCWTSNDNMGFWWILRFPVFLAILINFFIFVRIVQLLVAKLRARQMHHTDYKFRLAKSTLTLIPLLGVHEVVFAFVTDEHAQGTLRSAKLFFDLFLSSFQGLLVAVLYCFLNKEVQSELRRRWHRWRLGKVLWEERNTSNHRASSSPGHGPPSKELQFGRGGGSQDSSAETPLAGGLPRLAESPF

B1: Compound 4: H-HSQGTFTSDYSKYLDERRAKDFIEWLL-K(Hexadecanoyl-isoGlu)-A-NH2 (peptide)
peptide: HSQGTFTSDYSKYLDERRAKDFIEWLLXA
HELM: PEPTIDE1{H.S.Q.G.T.F.T.S.D.Y.S.K.Y.L.D.E.R.R.A.K.D.F.I.E.W.L.L.K.A.[am]}|PEPTIDE2{[CCCCCCCCCCCCCCCC(=O)[*:2]].[gGlu]}$PEPTIDE1,PEPTIDE2,28:R3-2:R2$$$V2.0
SMILES: CCCCCCCCCCCCCCCC(=O)N[C@@H](CCC(=O)NCCCC[C@H](NC(=O)[C@H](CC(C)C)NC(=O)[C@H](CC(C)C)NC(=O)[C@H](Cc1c[nH]c2ccccc12)NC(=O)[C@H](CCC(=O)O)NC(=O)[C@@H](NC(=O)[C@H](Cc1ccccc1)NC(=O)[C@H](CC(=O)O)NC(=O)[C@H](CCCCN)NC(=O)[C@H](C)NC(=O)[C@H](CCCNC(=N)N)NC(=O)[C@H](CCCNC(=N)N)NC(=O)[C@H](CCC(=O)O)NC(=O)[C@H](CC(=O)O)NC(=O)[C@H](CC(C)C)NC(=O)[C@H](Cc1ccc(O)cc1)NC(=O)[C@H](CCCCN)NC(=O)[C@H](CO)NC(=O)[C@H](Cc1ccc(O)cc1)NC(=O)[C@H](CC(=O)O)NC(=O)[C@H](CO)NC(=O)[C@@H](NC(=O)[C@H](Cc1ccccc1)NC(=O)[C@@H](NC(=O)CNC(=O)[C@H](CCC(N)=O)NC(=O)[C@H](CO)NC(=O)[C@@H](N)Cc1c[nH]cn1)[C@@H](C)O)[C@@H](C)O)[C@@H](C)CC)C(=O)N[C@@H](C)C(N)=O)C(=O)O
On to B1, for which, in experiment [1], the “GLP-1R EC50 (nM), cAMP formation in HEK293 cells expressing human GLP-1-R” value (“GLP-1R EC50 (nM), cAMP formation” below) is 0.31 nM. In experiment [2], the “GluR EC50 (nM), cAMP formation in HEK293 cells expressing human Glucagon-R” value (“GluR EC50 (nM), cAMP formation” below) stood at 0.25 nM.

B2: Compound 7: H-H-Aib-QGTFTSDYSKYLDE-K(Hexadecanoyl-isoGlu)-RAKDFIEWLLSA-NH2 (peptide)
peptide: HXQGTFTSDYSKYLDEXRAKDFIEWLLSA
HELM: PEPTIDE1{H.[Aib].Q.G.T.F.T.S.D.Y.S.K.Y.L.D.E.K.R.A.K.D.F.I.E.W.L.L.S.A.[am]}|PEPTIDE2{[CCCCCCCCCCCCCCCC(=O)[*:2]].[gGlu]}$PEPTIDE1,PEPTIDE2,17:R3-2:R2$$$V2.0
SMILES: CCCCCCCCCCCCCCCC(=O)N[C@@H](CCC(=O)NCCCC[C@H](NC(=O)[C@H](CCC(=O)O)NC(=O)[C@H](CC(=O)O)NC(=O)[C@H](CC(C)C)NC(=O)[C@H](Cc1ccc(O)cc1)NC(=O)[C@H](CCCCN)NC(=O)[C@H](CO)NC(=O)[C@H](Cc1ccc(O)cc1)NC(=O)[C@H](CC(=O)O)NC(=O)[C@H](CO)NC(=O)[C@@H](NC(=O)[C@H](Cc1ccccc1)NC(=O)[C@@H](NC(=O)CNC(=O)[C@H](CCC(N)=O)NC(=O)C(C)(C)NC(=O)[C@@H](N)Cc1c[nH]cn1)[C@@H](C)O)[C@@H](C)O)C(=O)N[C@@H](CCCNC(=N)N)C(=O)N[C@@H](C)C(=O)N[C@@H](CCCCN)C(=O)N[C@@H](CC(=O)O)C(=O)N[C@@H](Cc1ccccc1)C(=O)N[C@H](C(=O)N[C@@H](CCC(=O)O)C(=O)N[C@@H](Cc1c[nH]c2ccccc12)C(=O)N[C@@H](CC(C)C)C(=O)N[C@@H](CC(C)C)C(=O)N[C@@H](CO)C(=O)N[C@@H](C)C(N)=O)[C@@H](C)CC)C(=O)O
For the molecule B2, the “GLP-1R EC50 (nM), cAMP formation” value in experiment [1] was found to be 0.1 nM. For the same molecule, the “GluR EC50 (nM), cAMP formation” value in experiment [2] turned out to be 0.16 nM.

B3: Compound 5: H-HSQGTFTSDYSKYLD-K(Hexadecanoyl-isoGlu)-RRAKDFIEWLLSA-NH2 (peptide)
peptide: HSQGTFTSDYSKYLDXRRAKDFIEWLLSA
HELM: PEPTIDE1{H.S.Q.G.T.F.T.S.D.Y.S.K.Y.L.D.K.R.R.A.K.D.F.I.E.W.L.L.S.A.[am]}|PEPTIDE2{[CCCCCCCCCCCCCCCC(=O)[*:2]].[gGlu]}$PEPTIDE1,PEPTIDE2,16:R3-2:R2$$$V2.0
SMILES: CCCCCCCCCCCCCCCC(=O)N[C@@H](CCC(=O)NCCCC[C@H](NC(=O)[C@H](CC(=O)O)NC(=O)[C@H](CC(C)C)NC(=O)[C@H](Cc1ccc(O)cc1)NC(=O)[C@H](CCCCN)NC(=O)[C@H](CO)NC(=O)[C@H](Cc1ccc(O)cc1)NC(=O)[C@H](CC(=O)O)NC(=O)[C@H](CO)NC(=O)[C@@H](NC(=O)[C@H](Cc1ccccc1)NC(=O)[C@@H](NC(=O)CNC(=O)[C@H](CCC(N)=O)NC(=O)[C@H](CO)NC(=O)[C@@H](N)Cc1c[nH]cn1)[C@@H](C)O)[C@@H](C)O)C(=O)N[C@@H](CCCNC(=N)N)C(=O)N[C@@H](CCCNC(=N)N)C(=O)N[C@@H](C)C(=O)N[C@@H](CCCCN)C(=O)N[C@@H](CC(=O)O)C(=O)N[C@@H](Cc1ccccc1)C(=O)N[C@H](C(=O)N[C@@H](CCC(=O)O)C(=O)N[C@@H](Cc1c[nH]c2ccccc12)C(=O)N[C@@H](CC(C)C)C(=O)N[C@@H](CC(C)C)C(=O)N[C@@H](CO)C(=O)N[C@@H](C)C(N)=O)[C@@H](C)CC)C(=O)O
B3: the “GLP-1R EC50 (nM), cAMP formation” value in experiment [1] came out at 0.35 nM. In addition, the “GluR EC50 (nM), cAMP formation” value in experiment [2] was 0.19 nM.

For the molecule H-HSQGTFTSDYSKYLDEK([γGlu-Palmitoyl])RAKDFIEWLLSA-NH2 [Compound 6: H-HSQGTFTSDYSKYLDE-K(Hexadecanoyl-isoGlu)-RAKDFIEWLLSA-NH2], the “GLP-1R EC50 (nM), cAMP formation” value in experiment [1] is 0.13 nM.

Regarding HSQGTFTSDYSKYLDERRAXDFIEWLLSA (K(Hexadecanoyl-isoGlu) at position 20; C-terminal amide (NH2)) [Compound 3: H-HSQGTFTSDYSKYLDERRA-K(Hexadecanoyl-isoGlu)-DFIEWLLSA-NH2], the “GLP-1R EC50 (nM), cAMP formation” value in experiment [1] worked out at 0.64 nM. In experiment [2], the “GluR EC50 (nM), cAMP formation” value amounted to 0.6 nM.

B4: Compound 2: H-HSQGTFTSDYSKYLDERRAKDFIEWL-K(Hexadecanoyl-isoGlu)-SA-NH2 (peptide)
peptide: HSQGTFTSDYSKYLDERRAKDFIEWLXSA
HELM: PEPTIDE1{H.S.Q.G.T.F.T.S.D.Y.S.K.Y.L.D.E.R.R.A.K.D.F.I.E.W.L.K.S.A.[am]}|PEPTIDE2{[CCCCCCCCCCCCCCCC(=O)[*:2]].[gGlu]}$PEPTIDE1,PEPTIDE2,27:R3-2:R2$$$V2.0
SMILES: CCCCCCCCCCCCCCCC(=O)N[C@@H](CCC(=O)NCCCC[C@H](NC(=O)[C@H](CC(C)C)NC(=O)[C@H](Cc1c[nH]c2ccccc12)NC(=O)[C@H](CCC(=O)O)NC(=O)[C@@H](NC(=O)[C@H](Cc1ccccc1)NC(=O)[C@H](CC(=O)O)NC(=O)[C@H](CCCCN)NC(=O)[C@H](C)NC(=O)[C@H](CCCNC(=N)N)NC(=O)[C@H](CCCNC(=N)N)NC(=O)[C@H](CCC(=O)O)NC(=O)[C@H](CC(=O)O)NC(=O)[C@H](CC(C)C)NC(=O)[C@H](Cc1ccc(O)cc1)NC(=O)[C@H](CCCCN)NC(=O)[C@H](CO)NC(=O)[C@H](Cc1ccc(O)cc1)NC(=O)[C@H](CC(=O)O)NC(=O)[C@H](CO)NC(=O)[C@@H](NC(=O)[C@H](Cc1ccccc1)NC(=O)[C@@H](NC(=O)CNC(=O)[C@H](CCC(N)=O)NC(=O)[C@H](CO)NC(=O)[C@@H](N)Cc1c[nH]cn1)[C@@H](C)O)[C@@H](C)O)[C@@H](C)CC)C(=O)N[C@@H](CO)C(=O)N[C@@H](C)C(N)=O)C(=O)O
As to B4, the “GLP-1R EC50 (nM), cAMP formation” value in experiment [1] was 3.09 nM. Also, the “GluR EC50 (nM), cAMP formation” value in experiment [2] stood at 0.81 nM.
